pIC50: −log10 of the molar value.
Legend:
HLA-A*02:02 = assay: IEDB peptide-MHC binding, purified MHC/competitive/radioactivity; ≥ and ≤ were set here for values at or beyond the usual limits of such assays
HLA-A*02:06 = assay: as above
HLA-A*02:01 = assay: as above
HLA-A*02:03 = assay: as above
HLA-A*68:02 = assay: IEDB peptide-MHC binding, cellular MHC/competitive/fluorescence; ≥ and ≤ were set here for values at or beyond the usual limits of such assays
[1] = source organism: Vaccinia virus WR
[2] = source organism: Hepacivirus hominis
[3] = source organism: Mammarenavirus brazilense

In the case of IAMWLLLLSI, the pIC50 (HLA-A*02:02; source organism: SARS-CoV1) was 7.07, the pIC50 (HLA-A*02:06; source organism: SARS-CoV1) was 6.30 and the pIC50 (HLA-A*02:01; source organism: SARS-CoV1) was 6.67. It also gave a pIC50 (HLA-A*02:03; source organism: SARS-CoV1) of 5.72 and a pIC50 (HLA-A*68:02; source organism: SARS-CoV1) of 4.76.
In the case of FLLFLVLIML, the pIC50 (HLA-A*02:02; source organism: SARS-CoV1) was 5.80, the pIC50 (HLA-A*02:06; source organism: SARS-CoV1) was 5.53 and the pIC50 (HLA-A*02:01; source organism: SARS-CoV1) was 6.85. The pIC50 (HLA-A*02:03; source organism: SARS-CoV1) was 5.86 and the pIC50 (HLA-A*68:02; source organism: SARS-CoV1) was 5.23.
In the case of SMYVIPDEL, the pIC50 (HLA-A*02:02; [1]) was 8.30, the pIC50 (HLA-A*02:06; [1]) was 5.55 and the pIC50 (HLA-A*02:01; [1]) was 7.04. For the same sequence, the pIC50 (HLA-A*02:03; [1]) was 7.89 and the pIC50 (HLA-A*68:02; [1]) was 5.15.
With KLLNMRDLI the pIC50 (HLA-A*02:02; [1]) was 6.30, the pIC50 (HLA-A*02:06; [1]) was 7.36 and the pIC50 (HLA-A*02:01; [1]) was 7.74. The pIC50 (HLA-A*02:03; [1]) was 6.48 and the pIC50 (HLA-A*68:02; [1]) was 4.52.
LLDDFVEII showed a pIC50 (HLA-A*02:02; source organism: SARS-CoV1) of 6.87, a pIC50 (HLA-A*02:06; source organism: SARS-CoV1) of 6.80 and a pIC50 (HLA-A*02:01; source organism: SARS-CoV1) of 7.29. It also gave a pIC50 (HLA-A*02:03; source organism: SARS-CoV1) of 6.28 and a pIC50 (HLA-A*68:02; source organism: SARS-CoV1) of 4.52.
Work on GLRQQLEDI yielded a pIC50 (HLA-A*02:02; [1]) of 7.37, a pIC50 (HLA-A*02:06; [1]) of 5.37 and a pIC50 (HLA-A*02:01; [1]) of 6.90. For the same sequence, the pIC50 (HLA-A*02:03; [1]) was 8.33 and the pIC50 (HLA-A*68:02; [1]) was ≤ 4.15.
For LLSTTEWQV, the pIC50 (HLA-A*02:02; [2]) was 8.31, the pIC50 (HLA-A*02:06; [2]) was 6.48 and the pIC50 (HLA-A*02:01; [2]) was 7.17. For the same sequence, the pIC50 (HLA-A*02:03; [2]) was 7.02 and the pIC50 (HLA-A*68:02; [2]) was 4.56.
FLQISRVNDL gave a pIC50 (HLA-A*02:02; [1]) of 8.28, a pIC50 (HLA-A*02:06; [1]) of 6.24 and a pIC50 (HLA-A*02:01; [1]) of 7.89. For the same sequence, the pIC50 (HLA-A*02:03; [1]) was 7.17 and the pIC50 (HLA-A*68:02; [1]) was 5.13.
With WMMLLIAQA the pIC50 (HLA-A*02:02; [2]) was 7.28, the pIC50 (HLA-A*02:06; [2]) was 6.15 and the pIC50 (HLA-A*02:01; [2]) was 7.12. It also gave a pIC50 (HLA-A*02:03; [2]) of 7.33 and a pIC50 (HLA-A*68:02; [2]) of 4.80.
GLLGCIITSL gave a pIC50 (HLA-A*02:02; [2]) of 7.46, a pIC50 (HLA-A*02:06; [2]) of 6.50 and a pIC50 (HLA-A*02:01; [2]) of 7.82. The pIC50 (HLA-A*02:03; [2]) was 8.51 and the pIC50 (HLA-A*68:02; [2]) was 4.31.
With NLAPHLLLIV the pIC50 (HLA-A*02:02; source organism: SARS-CoV1) was 8.29, the pIC50 (HLA-A*02:06; source organism: SARS-CoV1) was 6.90 and the pIC50 (HLA-A*02:01; source organism: SARS-CoV1) was 6.69. For the same sequence, the pIC50 (HLA-A*02:03; source organism: SARS-CoV1) was 8.96 and the pIC50 (HLA-A*68:02; source organism: SARS-CoV1) was 5.14.
ALALEQYGI was tested, and the pIC50 (HLA-A*02:02; [1]) was 9.16, the pIC50 (HLA-A*02:06; [1]) was 6.26 and the pIC50 (HLA-A*02:01; [1]) was 7.52. For the same sequence, the pIC50 (HLA-A*02:03; [1]) was 7.40 and the pIC50 (HLA-A*68:02; [1]) was 4.39.
Work on YNYSLSAAV yielded a pIC50 (HLA-A*02:02; [3]) of 7.10, a pIC50 (HLA-A*02:06; [3]) of 7.06 and a pIC50 (HLA-A*02:01; [3]) of 6.27. The pIC50 (HLA-A*02:03; [3]) was 7.17 and the pIC50 (HLA-A*68:02; [3]) was ≤ 4.15.
Sequence KLFPRLPGI has a pIC50 (HLA-A*02:02; [2]) of 8.08, a pIC50 (HLA-A*02:06; [2]) of 8.66 and a pIC50 (HLA-A*02:01; [2]) of 8.89. For the same sequence, the pIC50 (HLA-A*02:03; [2]) was 9.30 and the pIC50 (HLA-A*68:02; [2]) was 4.40.
Sequence FQFICNLLLL has a pIC50 (HLA-A*02:02; source organism: SARS-CoV1) of 8.10, a pIC50 (HLA-A*02:06; source organism: SARS-CoV1) of 9.06 and a pIC50 (HLA-A*02:01; source organism: SARS-CoV1) of 8.28. It also gave a pIC50 (HLA-A*02:03; source organism: SARS-CoV1) of 7.21 and a pIC50 (HLA-A*68:02; source organism: SARS-CoV1) of 5.04.
Sequence IMAFILGIII has a pIC50 (HLA-A*02:02; [1]) of 6.20, a pIC50 (HLA-A*02:06; [1]) of 5.50 and a pIC50 (HLA-A*02:01; [1]) of 5.95. For the same sequence, the pIC50 (HLA-A*02:03; [1]) was 5.50 and the pIC50 (HLA-A*68:02; [1]) was 4.83.
With KLFTIAMWLL the pIC50 (HLA-A*02:02; source organism: SARS-CoV1) was 8.07, the pIC50 (HLA-A*02:06; source organism: SARS-CoV1) was 6.58 and the pIC50 (HLA-A*02:01; source organism: SARS-CoV1) was 7.52. For the same sequence, the pIC50 (HLA-A*02:03; source organism: SARS-CoV1) was 6.15 and the pIC50 (HLA-A*68:02; source organism: SARS-CoV1) was 5.03.
LVTSFLLMIV gave a pIC50 (HLA-A*02:02; source organism: SARS-CoV1) of 7.51, a pIC50 (HLA-A*02:06; source organism: SARS-CoV1) of 6.79 and a pIC50 (HLA-A*02:01; source organism: SARS-CoV1) of 6.11. The pIC50 (HLA-A*02:03; source organism: SARS-CoV1) was 7.92 and the pIC50 (HLA-A*68:02; source organism: SARS-CoV1) was 5.24.
